The source of these data is PMC5493754, “Myosin 7 and its adaptors link cadherins to actin” (Nature Communications, 2017).

Holding throughout (conditions): both partners purified
Assay [1] concerns the target T1, YFP-SANS_(CEN-PBM) saturated with harmonin NPDZ1.PDZ2 ( | human, UniProt Q495M9 300-461; Q9Y6N9-1 1-301).
T1 construct: SANS (USH1G), residues 300-461 of UniProt Q495M9; as m40; Harmonin-a1 (USH1C), human, residues 1-301 of UniProt Q9Y6N9-1; as m30; also called ^YFPSANS_(CEN-PBM)+NPDZ1.PDZ2; source: purified E. coli proteins mixed (saturating NPDZ1.PDZ2); not shown: YFP, N-terminal, kept
T1 sequence (looked up) 1: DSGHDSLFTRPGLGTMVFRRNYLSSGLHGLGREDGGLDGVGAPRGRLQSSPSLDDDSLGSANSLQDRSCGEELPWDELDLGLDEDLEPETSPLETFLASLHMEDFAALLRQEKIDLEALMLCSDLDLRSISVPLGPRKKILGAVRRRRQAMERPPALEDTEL
T1 sequence (looked up) 2: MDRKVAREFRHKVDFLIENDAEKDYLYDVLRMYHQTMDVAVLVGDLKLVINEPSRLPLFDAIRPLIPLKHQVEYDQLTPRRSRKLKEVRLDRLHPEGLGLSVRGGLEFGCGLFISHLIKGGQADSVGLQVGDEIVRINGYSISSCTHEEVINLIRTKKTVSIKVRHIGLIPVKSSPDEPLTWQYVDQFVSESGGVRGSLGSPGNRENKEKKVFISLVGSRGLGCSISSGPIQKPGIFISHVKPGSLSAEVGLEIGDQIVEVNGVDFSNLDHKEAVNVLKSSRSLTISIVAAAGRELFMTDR
Briefly: MST; YFP-fused partner held together with a third protein (saturating concentrations; competition experiments), non-fluorescent protein titrated.

Assay [2] addresses T2, Myo7a MF2 K2118N (deafness mutant) (human, UniProt Q13402-1 1702-2215, K2118N).
T2 construct: Myosin 7a, human, MF2, residues 1702-2215 of UniProt Q13402-1, with a deafness missense mutation; source: E. coli, purified similarly as wild type (Histrap, CaptoQ, gel filtration)
T2 sequence (looked up): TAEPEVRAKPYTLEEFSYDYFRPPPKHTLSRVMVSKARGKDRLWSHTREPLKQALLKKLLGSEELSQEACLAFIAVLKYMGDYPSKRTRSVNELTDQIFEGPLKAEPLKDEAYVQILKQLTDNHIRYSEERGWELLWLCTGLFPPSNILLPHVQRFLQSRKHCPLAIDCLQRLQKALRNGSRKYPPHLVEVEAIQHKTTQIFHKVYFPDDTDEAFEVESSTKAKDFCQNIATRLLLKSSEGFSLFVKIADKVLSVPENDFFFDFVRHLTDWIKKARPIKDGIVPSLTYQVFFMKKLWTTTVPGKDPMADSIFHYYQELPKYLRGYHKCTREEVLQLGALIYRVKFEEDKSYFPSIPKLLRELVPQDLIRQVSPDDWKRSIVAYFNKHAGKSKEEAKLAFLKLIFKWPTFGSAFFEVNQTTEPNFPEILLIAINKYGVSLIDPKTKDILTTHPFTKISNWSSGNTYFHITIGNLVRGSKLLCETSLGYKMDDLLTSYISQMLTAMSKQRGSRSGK
Briefly: MST; YFP-fused partner constant at 100 nM, non-fluorescent protein titrated (16 two-fold dilutions); 20 mM Hepes pH 7.0, 100 mM NaCl, 1 mM EGTA, 0.5 mM TCEP, 0.05% Tween 20; Monolith NT.115.

The target of assay [3] is T3, Myo7a MF2 G2163S (deafness mutant) (human, UniProt Q13402-1 1702-2215, G2163S).
T3 construct: Myosin 7a, human, MF2, residues 1702-2215 of UniProt Q13402-1, with a deafness missense mutation; source: E. coli, purified similarly as wild type (Histrap, CaptoQ, gel filtration)
T3 sequence (looked up): T2 sequence (looked up) with N417K, G462S
The description is as above.

Assay [4] addresses T4, Myo7a MF2 G1982E (deafness mutant) (human, UniProt Q13402-1 1702-2215, G1982E).
T4 construct: Myosin 7a, human, MF2, residues 1702-2215 of UniProt Q13402-1, with a deafness missense mutation; source: E. coli, purified similarly as wild type (Histrap, CaptoQ, gel filtration)
T4 sequence (looked up): T2 sequence (looked up) with G281E, N417K
Described as above.

Residue numbers refer to the chain shown, from its start. Where only a bound is given, the exact number is not on record here.

B1: Harmonin-a PDZ3c (non-fluorescent, as used in MST) (domain or fragment, human, UniProt Q9Y6N9-1 428-552, looked up)
chain: QDFRKYEEGFDPYSMFTPEQIMGKDVRLLRIKKEGSLDLALEGGVDSPIGKVVVSAVYERGAAERHGGIVKGDEIMAINGKIVTDYTLAEAEAALQKAWNQGGDWIDLVVAVCPPKEYDDELTFF
notes: Harmonin-a1 (USH1C), human, PDZ3 plus C-terminal peptide, residues 428-552 of UniProt Q9Y6N9-1; The methods say only that samples for ITC or crystallisation were digested with TEV protease; also called PDZ3c (isoA); source: E. coli BL21 (DE3) Rosetta, purified (Glutathione Sepharose 4B, size-exclusion chromatography)
Broadly, the Kd is the equilibrium constant for the complex coming apart. The molecule B1 displayed a Kd in assay [1] of over 100 µM.

B2: YFP-Harmonin-a PDZ3c (domain or fragment, human, UniProt Q9Y6N9-1 428-552, looked up)
chain: B1 chain
notes: Harmonin-a1 (USH1C), human, residues 428-552 of UniProt Q9Y6N9-1; also called ^YFPPDZ3c (isoA); source: E. coli BL21 (DE3) Rosetta, purified (Glutathione Sepharose 4B, size-exclusion chromatography)
With B2, the Kd in assay [2], in assay [3] and in assay [4] was over 60 µM in each case.
